Source: patent US20190361034A1
One block for each substance: values may come before it.

Tests used:
[1] = target: MHC class II molecules on MHC class II-expressing Raji cells (human); assay: direct ELISA, plate-immobilised Raji cells; 5% BSA, 2,500 cells; 31.25 ng/ml
[2] = target: MHC class II molecules on MHC class II-expressing Raji cells (human); assay: transfer cell ELISA, Raji cells; 250 ng/ml; plate row D
[3] = target: MHC class II molecules on MHC class II-expressing Raji cells (human); assay: transfer cell ELISA, Raji cells; 7.813 ng/ml; plate row C
[4] = target: MHC class II molecules on MHC class II-expressing Raji cells (human); assay: transfer cell ELISA, Raji cells; 62.5 ng/ml; plate row D
[5] = target: MHC class II molecules on MHC class II-expressing Raji cells (human); assay: direct ELISA, plate-immobilised Raji cells; 5% BSA, 2,500 cells; 1000 ng/ml
[6] = target: MHC class II molecules on MHC class II-expressing Raji cells (human); assay: direct ELISA, plate-immobilised Raji cells; 5% BSA, 5,000 cells; 500 ng/ml
[7] = target: MHC class II molecules on MHC class II-expressing Raji cells (human); assay: direct ELISA, plate-immobilised Raji cells; 10% FBS, 10,000 cells; 1000 ng/ml
[8] = target: MHC class II molecules on MHC class II-expressing Raji cells (human); assay: direct ELISA, plate-immobilised Raji cells; 5% BSA, 2,500 cells; 15.625 ng/ml
[9] = target: MHC class II molecules on MHC class II-expressing Raji cells (human); assay: transfer cell ELISA, Raji cells; 1.953 ng/ml; plate row D
[10] = target: MHC class II molecules on MHC class II-expressing Raji cells (human); assay: direct ELISA, plate-immobilised Raji cells; 10% FBS, 5,000 cells; 15.625 ng/ml
[11] = target: MHC class II molecules on MHC class II-expressing Raji cells (human); assay: transfer cell ELISA, Raji cells; 3.906 ng/ml; plate row D
[12] = target: MHC class II molecules on MHC class II-expressing Raji cells (human); assay: direct ELISA, plate-immobilised Raji cells; 5% BSA, 2,500 cells; 500 ng/ml
[13] = target: MHC class II molecules on MHC class II-expressing Raji cells (human); assay: direct ELISA, plate-immobilised Raji cells; 10% FBS, 10,000 cells; 15.625 ng/ml
[14] = target: MHC class II molecules on MHC class II-expressing Raji cells (human); assay: transfer cell ELISA, Raji cells; 250 ng/ml
[15] = target: MHC class II molecules on MHC class II-expressing Raji cells (human); assay: BLI; immobilised sample, Raji cells in solution; pH 7.0 control of FIG. 20
[16] = target: MHC class II molecules on MHC class II-expressing Raji cells (human); assay: direct ELISA, plate-immobilised Raji cells; 0.5% Casein, 2,500 cells; 250 ng/ml
[17] = target: MHC class II molecules on MHC class II-expressing Raji cells (human); assay: direct ELISA, plate-immobilised Raji cells; 3% gelatin, 10,000 cells; 500 ng/ml
[18] = target: MHC class II molecules on MHC class II-expressing Raji cells (human); assay: direct ELISA, plate-immobilised Raji cells; 0.5% Casein, 2,500 cells; 1000 ng/ml
[19] = target: MHC class II molecules on MHC class II-expressing Raji cells (human); assay: transfer cell ELISA, Raji cells; 3.906 ng/ml
[20] = target: MHC class II molecules on MHC class II-expressing Raji cells (human); assay: BLI; immobilised sample, Raji cells in solution; dark control of FIG. 24
[21] = target: MHC class II molecules on MHC class II-expressing Raji cells (human); assay: direct ELISA, plate-immobilised Raji cells; 0.5% Casein, 2,500 cells; 125 ng/ml
[22] = target: MHC class II molecules on MHC class II-expressing Raji cells (human); assay: BLI; IMP321 sample at 125% binding potency, Raji cells in solution; relative to reference standard
[23] = target: MHC class II molecules on MHC class II-expressing Raji cells (human); assay: direct ELISA, plate-immobilised Raji cells; 3% gelatin, 5,000 cells; 15.625 ng/ml
[24] = target: MHC class II molecules on MHC class II-expressing Raji cells (human); assay: direct ELISA, plate-immobilised Raji cells; 3% gelatin, 5,000 cells; 31.25 ng/ml
[25] = target: MHC class II molecules on MHC class II-expressing Raji cells (human); assay: direct ELISA, plate-immobilised Raji cells; 0.5% Casein, 10,000 cells; 500 ng/ml
[26] = target: MHC class II molecules on MHC class II-expressing Raji cells (human); assay: BLI; IMP321 sample at 150% binding potency, Raji cells in solution; relative to reference standard
[27] = target: MHC class II molecules on MHC class II-expressing Raji cells (human); assay: direct ELISA, plate-immobilised Raji cells; 3% gelatin, 2,500 cells; 31.25 ng/ml
[28] = target: MHC class II molecules on MHC class II-expressing Raji cells (human); assay: BLI; immobilised sample, Raji cells in solution; control of FIG. 18 (37° C., 1 day, no H2O2)
[29] = target: MHC class II molecules on MHC class II-expressing Raji cells (human); assay: BLI; immobilised sample, Raji cells in solution; pH 7.0 control of FIG. 22
[30] = target: MHC class II molecules on MHC class II-expressing Raji cells (human); assay: direct ELISA, plate-immobilised Raji cells; 0.5% Casein, 5,000 cells; 250 ng/ml
[31] = target: MHC class II molecules on MHC class II-expressing Raji cells (human); assay: direct ELISA, plate-immobilised Raji cells; 3% gelatin, 5,000 cells; 250 ng/ml
[32] = target: MHC class II molecules on MHC class II-expressing Raji cells (human); assay: direct ELISA, plate-immobilised Raji cells; 3% gelatin, 10,000 cells; 250 ng/ml
[33] = target: MHC class II molecules on MHC class II-expressing Raji cells (human); assay: transfer cell ELISA, Raji cells; 500 ng/ml

OD (ELISA signal) [1]: 0.304 OD
OD (ELISA signal) [2]: 0.361 OD
OD (ELISA signal) [3]: 0.02 OD
OD (ELISA signal) [4]: 0.076 OD
OD (ELISA signal) [5]: 1.83 OD
OD (ELISA signal) [6]: 1.36 OD
OD (ELISA signal) [7]: 1.34 OD
OD (ELISA signal) [8]: 0.281 OD
OD (ELISA signal) [9]: 0.01 OD
OD (ELISA signal) [10]: 0.327 OD
OD (ELISA signal) [11]: 0.012 OD
OD (ELISA signal) [12]: 1.32 OD
OD (ELISA signal) [13]: 0.333 OD
Substance: IMP321 treated with Peptide-N-Glycosidase F (PNGase F) (Fc fusion)

OD (ELISA signal) [14]: 0.956 OD
Bioactivity (binding) [15]: 126%
OD (ELISA signal) [16]: 0.231 OD
OD (ELISA signal) [17]: 1.55 OD
OD (ELISA signal) [18]: 0.112 OD
OD (ELISA signal) [19]: 0.034 OD
Bioactivity (binding) [20]: 100%
OD (ELISA signal) [21]: 0.163 OD
Potency determined by BLI assay [22]: 135%
OD (ELISA signal) [23]: 0.316 OD
OD (ELISA signal) [24]: 0.359 OD
OD (ELISA signal) [25]: 0.188 OD
Potency determined by BLI assay [26]: 150%
OD (ELISA signal) [27]: 0.303 OD
Bioactivity (binding) [28]: 77%
Bioactivity (binding) [29]: 94%
OD (ELISA signal) [30]: 0.255 OD
OD (ELISA signal) [31]: 2.1 OD
OD (ELISA signal) [32]: 1.39 OD
OD (ELISA signal) [33]: 1.81 OD
Substance: IMP321, recombinant soluble human LAG-3Ig fusion protein (Fc fusion)
